± gives the uncertainty stated by the source.
Test: abundance fitness (aPCA) (normalised: wild type 0, dead -1); higher = more abundant; growth selection in yeast, the domain comes from the species named
Conditions: Saccharomyces cerevisiae (strain ATCC 204508 / S288c)

**Q.** For “E3 ubiquitin-protein ligase RSP5 F341N, P39940”, which abundance fitness is on record?
**A.** 0.189 ± 0.11

**Q.** With “E3 ubiquitin-protein ligase RSP5 F341P, P39940” as the substance, how does the abundance fitness read?
**A.** -0.669 ± 0.082

**Q.** Which abundance fitness does the source give for “E3 ubiquitin-protein ligase RSP5 F341R, P39940” here?
**A.** -0.053 ± 0.045

**Q.** Which abundance fitness does the source give for “E3 ubiquitin-protein ligase RSP5 F341S, P39940” here?
**A.** -0.066 ± 0.06

**Q.** Which abundance fitness does the source give for “E3 ubiquitin-protein ligase RSP5 F341T, P39940” here?
**A.** 0.003 ± 0.067

**Q.** For “E3 ubiquitin-protein ligase RSP5 F341V, P39940”, which abundance fitness is on record?
**A.** 0.019 ± 0.043

**Q.** For “E3 ubiquitin-protein ligase RSP5 F341W, P39940”, which abundance fitness is on record?
**A.** -0.064 ± 0.056

**Q.** For “E3 ubiquitin-protein ligase RSP5 F341Y, P39940”, which abundance fitness is on record?
**A.** 0.048 ± 0.054

**Q.** For “E3 ubiquitin-protein ligase RSP5 F349A, P39940”, which abundance fitness is on record?
**A.** -0.708 ± 0.047

**Q.** With “E3 ubiquitin-protein ligase RSP5 F349G, P39940” as the substance, how does the abundance fitness read?
**A.** -0.703 ± 0.043

**Q.** For “E3 ubiquitin-protein ligase RSP5 F349I, P39940”, which abundance fitness is on record?
**A.** -0.814 ± 0.1

**Q.** With “E3 ubiquitin-protein ligase RSP5 F349K, P39940” as the substance, how does the abundance fitness read?
**A.** -0.837 ± 0.13

**Q.** For “E3 ubiquitin-protein ligase RSP5 F349L, P39940”, which abundance fitness is on record?
**A.** -0.648 ± 0.055

**Q.** For “E3 ubiquitin-protein ligase RSP5 F349M, P39940”, which abundance fitness is on record?
**A.** -0.662 ± 0.15

**Q.** Which abundance fitness does the source give for “E3 ubiquitin-protein ligase RSP5 F349P, P39940” here?
**A.** -0.804 ± 0.08

**Q.** For “E3 ubiquitin-protein ligase RSP5 F349R, P39940”, which abundance fitness is on record?
**A.** -0.937 ± 0.051

**Q.** With “E3 ubiquitin-protein ligase RSP5 F349S, P39940” as the substance, how does the abundance fitness read?
**A.** -0.83 ± 0.057

**Q.** For “E3 ubiquitin-protein ligase RSP5 F349V, P39940”, which abundance fitness is on record?
**A.** -0.739 ± 0.044

**Q.** With “E3 ubiquitin-protein ligase RSP5 F349W, P39940” as the substance, how does the abundance fitness read?
**A.** -0.008 ± 0.052

**Q.** Which abundance fitness does the source give for “E3 ubiquitin-protein ligase RSP5 F349Y, P39940” here?
**A.** 0.086 ± 0.072

**Q.** With “E3 ubiquitin-protein ligase RSP5 G324A, P39940” as the substance, how does the abundance fitness read?
**A.** 0.004 ± 0.084

**Q.** With “E3 ubiquitin-protein ligase RSP5 G324C, P39940” as the substance, how does the abundance fitness read?
**A.** 0.204 ± 0.12

**Q.** With “E3 ubiquitin-protein ligase RSP5 G324D, P39940” as the substance, how does the abundance fitness read?
**A.** 0.06 ± 0.065

**Q.** With “E3 ubiquitin-protein ligase RSP5 G324E, P39940” as the substance, how does the abundance fitness read?
**A.** 0.216 ± 0.071

**Q.** With “E3 ubiquitin-protein ligase RSP5 G324F, P39940” as the substance, how does the abundance fitness read?
**A.** -0.48 ± 0.45

**Q.** For “E3 ubiquitin-protein ligase RSP5 G324K, P39940”, which abundance fitness is on record?
**A.** 0.284 ± 0.14

**Q.** Which abundance fitness does the source give for “E3 ubiquitin-protein ligase RSP5 G324L, P39940” here?
**A.** -0.328 ± 0.13

**Q.** With “E3 ubiquitin-protein ligase RSP5 G324M, P39940” as the substance, how does the abundance fitness read?
**A.** 0.105 ± 0.12

**Q.** For “E3 ubiquitin-protein ligase RSP5 G324N, P39940”, which abundance fitness is on record?
**A.** 0.182 ± 0.12

**Q.** With “E3 ubiquitin-protein ligase RSP5 G324P, P39940” as the substance, how does the abundance fitness read?
**A.** -0.178 ± 0.1

**Q.** Which abundance fitness does the source give for “E3 ubiquitin-protein ligase RSP5 G324R, P39940” here?
**A.** -0.099 ± 0.066

**Q.** Which abundance fitness does the source give for “E3 ubiquitin-protein ligase RSP5 G324S, P39940” here?
**A.** 0.097 ± 0.092

**Q.** Which abundance fitness does the source give for “E3 ubiquitin-protein ligase RSP5 G324T, P39940” here?
**A.** -0.04 ± 0.11

**Q.** For “E3 ubiquitin-protein ligase RSP5 G324V, P39940”, which abundance fitness is on record?
**A.** 0.005 ± 0.11

**Q.** With “E3 ubiquitin-protein ligase RSP5 G324W, P39940” as the substance, how does the abundance fitness read?
**A.** -0.344 ± 0.086

**Q.** With “E3 ubiquitin-protein ligase RSP5 G325A, P39940” as the substance, how does the abundance fitness read?
**A.** -0.046 ± 0.051

**Q.** With “E3 ubiquitin-protein ligase RSP5 G325C, P39940” as the substance, how does the abundance fitness read?
**A.** -0.008 ± 0.071

**Q.** For “E3 ubiquitin-protein ligase RSP5 G325D, P39940”, which abundance fitness is on record?
**A.** 0.051 ± 0.051

**Q.** With “E3 ubiquitin-protein ligase RSP5 G325E, P39940” as the substance, how does the abundance fitness read?
**A.** -0.031 ± 0.067

**Q.** With “E3 ubiquitin-protein ligase RSP5 G325F, P39940” as the substance, how does the abundance fitness read?
**A.** -0.132 ± 0.065

**Q.** With “E3 ubiquitin-protein ligase RSP5 G325H, P39940” as the substance, how does the abundance fitness read?
**A.** -0.035 ± 0.099

**Q.** Which abundance fitness does the source give for “E3 ubiquitin-protein ligase RSP5 G325I, P39940” here?
**A.** 0.018 ± 0.092

**Q.** Which abundance fitness does the source give for “E3 ubiquitin-protein ligase RSP5 G325L, P39940” here?
**A.** 0.029 ± 0.11

**Q.** With “E3 ubiquitin-protein ligase RSP5 G325M, P39940” as the substance, how does the abundance fitness read?
**A.** 0.137 ± 0.095

**Q.** With “E3 ubiquitin-protein ligase RSP5 G325P, P39940” as the substance, how does the abundance fitness read?
**A.** -0.252 ± 0.072

**Q.** For “E3 ubiquitin-protein ligase RSP5 G325Q, P39940”, which abundance fitness is on record?
**A.** -0.151 ± 0.1

**Q.** For “E3 ubiquitin-protein ligase RSP5 G325R, P39940”, which abundance fitness is on record?
**A.** -0.063 ± 0.047

**Q.** Which abundance fitness does the source give for “E3 ubiquitin-protein ligase RSP5 G325S, P39940” here?
**A.** 0.069 ± 0.094

**Q.** With “E3 ubiquitin-protein ligase RSP5 G325T, P39940” as the substance, how does the abundance fitness read?
**A.** 0.071 ± 0.097

**Q.** For “E3 ubiquitin-protein ligase RSP5 G325V, P39940”, which abundance fitness is on record?
**A.** -0.021 ± 0.045

**Q.** With “E3 ubiquitin-protein ligase RSP5 G325W, P39940” as the substance, how does the abundance fitness read?
**A.** -0.141 ± 0.099

— the Human Domainome abundance scans (Beltran et al. 2025)
